Entries after “also recorded” stand apart in the source; their conditions may differ.
T1: Ubc3 (Homo sapiens, UniProt P49427)
T1 construct: expressed in transfected cells; host or cells: HEK293
T1 sequence (P49427 1-236): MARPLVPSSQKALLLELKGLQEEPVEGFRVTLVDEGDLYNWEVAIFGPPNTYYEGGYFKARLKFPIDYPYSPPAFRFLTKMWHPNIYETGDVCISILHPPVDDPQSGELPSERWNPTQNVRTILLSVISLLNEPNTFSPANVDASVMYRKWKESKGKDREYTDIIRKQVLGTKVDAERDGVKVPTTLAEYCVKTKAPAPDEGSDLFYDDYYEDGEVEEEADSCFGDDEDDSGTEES


How the values were obtained:
[1] = biological target: T2, UbcH6 (Homo sapiens, UniProt P51965); experiment: Co-immunoprecipitation of Myc-Parkin with UbcH6 expressed in HEK293 cells; format: binding; details: IP with antiMyc antibody
T2 construct: expressed in transfected cells; host or cells: HEK293
T2 sequence (P51965 whole entry): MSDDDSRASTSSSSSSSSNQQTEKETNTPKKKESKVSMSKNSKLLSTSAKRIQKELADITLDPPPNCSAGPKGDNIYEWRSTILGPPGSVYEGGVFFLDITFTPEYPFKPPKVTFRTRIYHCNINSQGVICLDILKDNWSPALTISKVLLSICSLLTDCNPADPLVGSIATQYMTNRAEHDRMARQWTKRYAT
Procedure: (§1) For preparing pcDNA3.1(+)Myc and pcDNA3.1(+)FLAG vectors, oligo DNA encoding N-terminal Myc and FLAG epitopes was ligated at KpnI/BamHI domain of pcDNA3.1(+) (Invitrogen). After the amplification of wild type parkin or N-terminal-deficient variant, Ubc2(HHR6B), UbcH8 and cDNA of ubiquitin with a suitable primer, they were ligated in BamHI domain of the vector. The C-terminal-deficient variant and missense variant of parkin were prepared by introducing a variation into pcDNA3.1(+)Myc-Parkin by using a Quik Change domain specific variation inducing kit (Stratagene) according to a manual. pCAGGS-Ubc3 was already reported [Iwai K. et al., Proc. Natl. Acad. Sci. USA 96, 12436-12441 (1999)].
(§2) pCGN-Ubc4 and other pcDNA3.1(+)FLAG-Ubc were prepared from human liver cDNA library by an ordinary method. Ubc used was obtained from human beings in all the cases. […]
(§3) The following test was conducted to find whether Parkin concerns the ubiquitin pathway or not. To find whether the interaction between Parkin and each of various E2 enzymes occurs or not, Myc-labeled parkin was expressed together with various E2 enzymes labeled with FLAG, HA or His at different domains in HEK293 cells, and the interaction of them was detected by the immunoprecipitation The results are shown in FIG. 1. […]

[2] = biological target: T3, UbcH8 (Homo sapiens, UniProt O14933); experiment: Co-immunoprecipitation of Myc-Parkin with UbcH8 expressed in HEK293 cells; format: binding; details: 48 hours after transfection, IP with antiMyc antibody
T3 construct: expressed in transfected cells; host or cells: HEK293
T3 sequence (O14933 whole entry): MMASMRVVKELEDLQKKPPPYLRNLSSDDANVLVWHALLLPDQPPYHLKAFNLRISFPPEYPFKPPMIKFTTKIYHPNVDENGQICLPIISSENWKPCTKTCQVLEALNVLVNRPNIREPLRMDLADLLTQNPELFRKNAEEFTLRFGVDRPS
Procedure: as §1, §2, §3

[3] = test system: HEK293 fetal kidney cell; experiment: Association of FLAG-ubiquitinated cell protein with Myc-Parkin in HEK293 cells; format: cell-based, human; details: HEK293 fetal kidney cell extract, same analysis as in SH-SY5Y
Procedure: (§4) pCGN-Ubc4 and other pcDNA3.1(+)FLAG-Ubc were prepared from human liver cDNA library by an ordinary method. Ubc used was obtained from human beings in all the cases. Human fetal kidney 293 (HEK293) cells and human dopamigenergic neuroblastoma SH-SY5Y cells were cultured in DMEM containing 10% bovine fetal serum, 10 μg/ml streptomycin and 100 U/ml penicillin.
(§5) The transfection was carried out by using FuGENE6 transfection reagent according to the producer (Boehringer-Mannheim)'s manual. The cells were treated with MG132 (Cbz-Leu-Leu-Leu-aldehyde) (Peptide Institute, Inc., Osaka, Japan) having a final concentration of 50 μM.
(§6) The immunoprecipitation was conducted with rabbit polyclonal antiMyc antibodies (A-14) (Santa Cruz Biotechnology) as previously reported [Suzuki H. et al., Biochem. Biophys. Res. Commun. 256, 127-132 (1999)]. The immunoblotting was conducted with biotin linked mouse monoclonal antiFLAG(M2) antibody (SIGMA), mouse monoclonal antiMyc antibody (9E10) (Santa Cruz Biotechnology), mouse monoclonal antiHA antibody (HA.11) (Berkeley Antibody Company) or mouse monoclonal antiHis antibody (RGS.His) (QIAGEN). Streptoavidin/horseradish peroxidase complex (Amersham Pharmacia Biotech) was used for detecting biotin-linked antiFLAG(M2) antibody.
(§7) At first, 10 μg of pcDNA3.1(+)Myc-parkin and 10 μg of pcDNA3.1(+)FLAG-ubiquitin vector were simultaneously transfected into SH-SY5Y cells. […]

[4] = test system: human dopamigenergic neuroblastoma SH-SY5Y cells; experiment: Association of FLAG-ubiquitinated cell protein with Myc-Parkin in SH-SY5Y cells (antiMyc immunoprecipitation, antiFLAG immunoblotting); format: cell-based
Procedure: as §1, §4, §5, §6, §7

[5] = biological target: T1, Ubc3; experiment: Co-immunoprecipitation of Myc-Parkin with Ubc3 expressed in HEK293 cells; format: binding; details: IP with antiMyc antibody
Procedure: as §1, §2, §3

[6] = test system: UbcH5A-C; experiment: Co-immunoprecipitation of Myc-Parkin with UbcH5A-C expressed in HEK293 cells; format: binding, human; details: IP with antiMyc antibody
Procedure: as §1, §2, §3

[7] = test system: Ubc4; experiment: Co-immunoprecipitation of Myc-Parkin with Ubc4 expressed in HEK293 cells; format: binding, human; details: IP with antiMyc antibody
Procedure: as §1, §2, §3

[8] = biological target: T4, UbcH7 (Homo sapiens, UniProt P68036); experiment: Co-immunoprecipitation of Myc-Parkin with FLAG-UbcH7 expressed in HEK293 cells; format: binding; details: 48 hours after transfection, IP with antiMyc antibody
T4 construct: expressed in transfected cells; host or cells: HEK293
T4 sequence (P68036 whole entry): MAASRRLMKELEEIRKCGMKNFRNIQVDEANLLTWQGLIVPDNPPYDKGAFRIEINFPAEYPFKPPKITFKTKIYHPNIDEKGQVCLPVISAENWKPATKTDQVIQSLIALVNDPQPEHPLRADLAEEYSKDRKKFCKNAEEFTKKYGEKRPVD
Procedure: as §1, §4
The transfection was carried out by using FuGENE6 transfection reagent according to the producer (Boehringer-Mannheim)'s manual. […]
The following test was conducted to find whether Parkin concerns the ubiquitin pathway or not. To find whether the interaction between Parkin and each of various E2 enzymes occurs or not, Myc-labeled parkin was expressed together with various E2 enzymes labeled with FLAG, HA or His at different domains in HEK293 cells, and the interaction of them was detected by the immunoprecipitation The results are shown in FIG. 1.
Concretely, pcDNA3.1(+)Myc-Parkin ([…]) was transfected in HEK293 cells simultaneously with various expression vectors encoding FLAG-, His- or HA-Ubc in an amount shown in the parentheses in FIG. 1. […] The cell extracts (upper panel in FIG. 1) and immunoprecipitates (middle and lower panels in FIG. 1) were analyzed by the immunoblotting with various antibodies as shown in FIG. 1. […]

[9] = biological target: T5, Ubc2 (Homo sapiens, UniProt P63146); experiment: Co-immunoprecipitation of Myc-Parkin with Ubc2 expressed in HEK293 cells; format: binding; details: IP with antiMyc antibody
T5 construct: expressed in transfected cells; host or cells: HEK293
T5 sequence (P63146 whole entry): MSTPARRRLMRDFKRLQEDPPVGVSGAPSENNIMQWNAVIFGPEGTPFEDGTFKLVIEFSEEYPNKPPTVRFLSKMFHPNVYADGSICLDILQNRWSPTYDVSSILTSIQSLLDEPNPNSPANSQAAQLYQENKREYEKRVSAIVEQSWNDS
Procedure: as §1, §2, §3

[10] = SH-SY5Y cells treated with proteasome inhibitor MG132 (50 μM)

| association (co-immunoprecipitation) with UbcH6 [1] | association (co-immunoprecipitation) with Ubc3 [5] | association (co-immunoprecipitation) with UbcH7 [8] | association (co-immunoprecipitation) with Ubc2 [9] | Molecule | association (co-immunoprecipitation) with UbcH8 [2] | ubiquitinated protein bands associated with Parkin [3] | ubiquitinated protein bands associated with Parkin [4, 10] | ubiquitinated protein bands associated with Parkin ([4]; SH-SY5Y cells, no treatment with inhibitor) | association (co-immunoprecipitation) with UbcH5A-C [6] | association (co-immunoprecipitation) with Ubc4 [7] |
| --- | --- | --- | --- | --- | --- | --- | --- | --- | --- | --- |
| no detectable linkage | no detectable linkage | immunoprecipitated together with Parkin | no detectable linkage | Parkin: Protein of 465 amino acids encoded by parkin, with N-terminal ubiquitin-like domain and C-terminal RING-box; used Myc-labeled (protein, UniProt O60260 1-465, looked up, Myc tag, Protein of 465 amino acids encoded by parkin, with N-terminal ubiquitin-like domain and C-terminal RING-box; used Myc-labeled) E3 ubiquitin-protein ligase …: MIVFVRFNSSHGFPVEVDSDTSIFQLKEVVAKRQGVPADQLRVIFAGKELRNDWTVQNCDLDQQSIVHIVQRPWRKGQEMNATGGDDPRNAAGGCEREPQSLTRVDLSSSVLPGDSVGLAVILHTDSRKDSPPAGSPAGRSIYNSFYVYCKGPCQRVQPGKLRVQCSTCRQATLTLTQGPSCWDDVLIPNRMSGECQSPHCPGTSAEFFFKCGAHPTSDKETSVALHLIATNSRNITCITCTDVRSPVLVFQCNSRHVICLDCFHLYCVTRLNDRQFVHDPQLGYSLPCVAGCPNSLIKELHHFRILGEEQYNRYQQYGAEECVLQMGGVLCPRPGCGAGLLPEPDQRKVTCEGGNGLGCGFAFCRECKEAYHEGECSAVFEASGTTTQAYRVDERAAEQARWEAASKETIKKTTKPCPRCHVPVEKNGGCMHMKCPQPQCRLEWCWNCGCEWNRVCMGDHWFDV | not detected under ordinary conditions; also recorded: UbcH8 immunoprecipitation was weak | no ubiquitinated band linked with Parkin was observed | ubiquitinated bands including high-molecular ubiquitinated proteins, were detected | no ubiquitinated band was found | no detectable linkage | no detectable linkage |
|  |  | did not interact with UbcH7 |  | Parkin^T240R: Missense Parkin variant from AR-JP patient, No. 240 threonine replaced with arginine (RING1 domain) (protein, UniProt O60260 1-465, looked up, variant T240R) E3 ubiquitin-protein ligase …: MIVFVRFNSSHGFPVEVDSDTSIFQLKEVVAKRQGVPADQLRVIFAGKELRNDWTVQNCDLDQQSIVHIVQRPWRKGQEMNATGGDDPRNAAGGCEREPQSLTRVDLSSSVLPGDSVGLAVILHTDSRKDSPPAGSPAGRSIYNSFYVYCKGPCQRVQPGKLRVQCSTCRQATLTLTQGPSCWDDVLIPNRMSGECQSPHCPGTSAEFFFKCGAHPTSDKETSVALHLIATNSRNITCIRCTDVRSPVLVFQCNSRHVICLDCFHLYCVTRLNDRQFVHDPQLGYSLPCVAGCPNSLIKELHHFRILGEEQYNRYQQYGAEECVLQMGGVLCPRPGCGAGLLPEPDQRKVTCEGGNGLGCGFAFCRECKEAYHEGECSAVFEASGTTTQAYRVDERAAEQARWEAASKETIKKTTKPCPRCHVPVEKNGGCMHMKCPQPQCRLEWCWNCGCEWNRVCMGDHWFDV |  |  |  |  |  |  |
|  |  | could be linked with UbcH7 |  | Parkin^R42P: Missense Parkin variant from AR-JP patient, No. 42 arginine replaced with proline (ubiquitin-like domain variant) (protein, UniProt O60260 1-465, looked up, variant R42P) E3 ubiquitin-protein ligase …: MIVFVRFNSSHGFPVEVDSDTSIFQLKEVVAKRQGVPADQLPVIFAGKELRNDWTVQNCDLDQQSIVHIVQRPWRKGQEMNATGGDDPRNAAGGCEREPQSLTRVDLSSSVLPGDSVGLAVILHTDSRKDSPPAGSPAGRSIYNSFYVYCKGPCQRVQPGKLRVQCSTCRQATLTLTQGPSCWDDVLIPNRMSGECQSPHCPGTSAEFFFKCGAHPTSDKETSVALHLIATNSRNITCITCTDVRSPVLVFQCNSRHVICLDCFHLYCVTRLNDRQFVHDPQLGYSLPCVAGCPNSLIKELHHFRILGEEQYNRYQQYGAEECVLQMGGVLCPRPGCGAGLLPEPDQRKVTCEGGNGLGCGFAFCRECKEAYHEGECSAVFEASGTTTQAYRVDERAAEQARWEAASKETIKKTTKPCPRCHVPVEKNGGCMHMKCPQPQCRLEWCWNCGCEWNRVCMGDHWFDV |  |  | substantially completely lost the association with the ubiquitinated protein |  |  |  |

— US20050042607A1, “Parkin protein as ubiquitin ligase” (priority 2000, published 2005)
